This assay concerns the target HAdV-D26 capsid (replication-defective, E1-deleted vector particle with a GFP-luciferase fusion expression … (human adenovirus D26)). The experiment in a line: SPR.

B1: human lactoferrin (natural protein)
chain: GRRRSVQWCAVSQPEATKCFQWQRNMRKVRGPPVSCIKRDSPIQCIQAIAENRADAVTLDGGFIYEAGLAPYKLRPVAAEVYGTERQPRTHYYAVAVVKKGGSFQLNELQGLKSCHTGLRRTAGWNVPIGTLRPFLNWTGPPEPIEAAVARFFSASCVPGADKGQFPNLCRLCAGTGENKCAFSSQEPYFSYSGAFKCLRDGAGDVAFIRESTVFEDLSDEAERDEYELLCPDNTRKPVDKFKDCHLARVPSHAVVARSVNGKEDAIWNLLRQAQEKFGKDKSPKFQLFGSPSGQKDLLFKDSAIGFSRVPPRIDSGLYLGSGYFTAIQNLRKSEEEVAARRARVVWCAVGEQELRKCNQWSGLSEGSVTCSSASTTEDCIALVLKGEADAMSLDGGYVYTAGKCGLVPVLAENYKSQQSSDPDPNCVDRPVEGYLAVAVVRRSDTSLTWNSVKGKKSCHTAVDRTAGWNIPMGLLFNQTGSCKFDEYFSQSCAPGSDPRSNLCALCIGDEQGENKCVPNSNERYYGYTGAFRCLAENAGDVAFVKDVTVLQNTDGNNNEAWAKDLKLADFALLCLDGKRKPVTEARSCHLAMAPNHAVVSRMDKVERLKQVLLHQQAKFGRNGSDCPDKFCLFQSETKNLLFNDNTECLARLHGKTTYEKYLGPQYVAGITNLKKCSTSPLLEACEFLRK
In general, Kd refers to the equilibrium constant for the complex coming apart. In the case of B1, binding was characterised by a dissociation constant (Kd) of 2550 nM.
